Patent EP1758924B1 (Council of Scientific and Industrial Research, dated 2005)

Legend:
[1] = biological target: T1, bovine serum albumin (BSA) (bovine, UniProt P02769 25-607); assay: reverse phage ELISA, A405
T1 construct: Negative control target in the reverse phage ELISA

[2] = biological target: T2, Hsp16.3 (16 kDa alpha-crystallin like heat-shock protein of Mycobacterium tuberculosis), recombinant, 6 X His … (Mycobacterium tuberculosis); assay: reverse phage ELISA on coated Hsp16.3, anti-M13-HRP, A405
T2 construct: also called M. tuberculosis Acr (Hsp16.3) protein

T1 sequence (P02769 25-607 limits assumed): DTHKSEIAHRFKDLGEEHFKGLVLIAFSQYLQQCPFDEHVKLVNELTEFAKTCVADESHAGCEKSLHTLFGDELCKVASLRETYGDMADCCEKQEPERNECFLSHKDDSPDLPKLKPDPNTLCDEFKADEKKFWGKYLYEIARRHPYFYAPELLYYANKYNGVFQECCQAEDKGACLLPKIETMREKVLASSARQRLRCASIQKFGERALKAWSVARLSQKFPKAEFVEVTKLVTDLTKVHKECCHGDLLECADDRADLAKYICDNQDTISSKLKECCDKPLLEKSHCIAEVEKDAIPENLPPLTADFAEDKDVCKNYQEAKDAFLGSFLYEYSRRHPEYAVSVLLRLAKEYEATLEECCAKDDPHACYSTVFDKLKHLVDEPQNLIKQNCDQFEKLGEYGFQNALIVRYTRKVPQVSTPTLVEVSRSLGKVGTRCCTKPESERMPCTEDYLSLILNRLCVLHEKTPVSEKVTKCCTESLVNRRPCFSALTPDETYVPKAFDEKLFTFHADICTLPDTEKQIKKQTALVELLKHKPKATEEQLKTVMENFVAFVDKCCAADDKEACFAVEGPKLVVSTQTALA

Row | Binder | binding result [1] | fold binding over BSA background [2]
1 | KMHATNH (Tested as whole phage in the reverse phage ELISA; not shown: fused to an M13 coat protein (spacer Gly-Gly-Gly-Ser is named)) | no binding | ~3 fold
2 | YPHHFKHRHIPI (Tested as whole phage in the reverse phage ELISA; not shown: fused to an M13 coat protein (spacer Gly-Gly-Gly-Ser is named)) | no binding | 
